Test results reported in patent publication US8618251.

Legend:
[1] = biological target: soluble hFcγRIIIA FV (human) (UniProt P08637); assay: SPR Biacore T100; reference of the fold not given
[2] = biological target: soluble hFcγRIIA^131R (human) (UniProt P12318); assay: SPR Biacore T100; reference of the fold not given
[3] = biological target: soluble hFcγRIIIA FF (human) (UniProt P08637); assay: SPR Biacore T100; reference of the fold not given
soluble hFcγRIIB (human) [4] = biological target: soluble hFcγRIIB (human) (UniProt P31994); assay: SPR Biacore T100; reference of the fold not given
[5] = biological target: soluble hFcγRIIA^131H (human) (UniProt P12318); assay: SPR Biacore T100; reference of the fold not given
[6] = biological target: soluble hFcγRIIIA FV (human) (UniProt P08637); assay: SPR Biacore T100, steady state, antibody immobilised
[7] = biological target: soluble hFcγRIIA^131R (human) (UniProt P12318); assay: as above
[8] = biological target: soluble hFcγRIIIA FF (human) (UniProt P08637); assay: as above
soluble hFcγRIIB (human) [9] = biological target: soluble hFcγRIIB (human) (UniProt P31994); assay: as above
[10] = biological target: soluble hFcγRIIA^131H (human) (UniProt P12318); assay: as above
C1q (Calbiochem) [11] = biological target: C1q (Calbiochem) (UniProt P02745); assay: as above
[12] = biological target: soluble hFcγ-receptor RIa (human) (UniProt P12314); assay: SPR Biacore T100; reference of the fold not given
C1q (Calbiochem) [13] = biological target: C1q (Calbiochem) (UniProt P02745); assay: SPR Biacore T100; reference of the fold not given
[14] = biological target: soluble hFcγ-receptor RIa (human) (UniProt P12314); assay: SPR Biacore T100, steady state, antibody immobilised
C1q (Calbiochem) [15] = biological target: C1q (Calbiochem) (UniProt P02745); assay: SPR (Biacore T100), steady-state affinity; antibody immobilised on CM5 chip, C1q injected
[16] = biological target: soluble hFcγRIIIA FV (human) (UniProt P08637); assay: SPR (Biacore T100), steady-state affinity; antibody immobilised on CM5 chip, soluble receptor injected; column head hRIIIA158F, whose values for IEAL, ALEV and LLLFET are those of the hRIIIA FV column of Table 1
[17] = biological target: soluble hFcγRIIA^131R (human) (UniProt P12318); assay: SPR (Biacore T100), steady-state affinity; antibody immobilised on CM5 chip, soluble receptor injected
[18] = biological target: soluble hFcγRIIA^131H (human) (UniProt P12318); assay: as above

soluble hFcγRIIIA FV (human), sequence (P08637 17-208 F176V): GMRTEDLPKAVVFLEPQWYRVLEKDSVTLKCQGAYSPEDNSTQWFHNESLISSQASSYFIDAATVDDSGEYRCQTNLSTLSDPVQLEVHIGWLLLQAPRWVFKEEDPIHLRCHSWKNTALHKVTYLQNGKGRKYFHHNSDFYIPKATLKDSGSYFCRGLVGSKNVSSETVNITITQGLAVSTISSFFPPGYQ
soluble hFcγRIIA^131H (human), sequence (P12318 34-217): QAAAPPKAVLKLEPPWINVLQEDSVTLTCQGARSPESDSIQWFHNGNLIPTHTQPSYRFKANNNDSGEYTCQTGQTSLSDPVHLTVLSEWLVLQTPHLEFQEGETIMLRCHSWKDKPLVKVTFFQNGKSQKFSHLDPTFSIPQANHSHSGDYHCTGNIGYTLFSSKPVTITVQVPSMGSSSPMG
C1q (Calbiochem), sequence (P02745 23-245 limits assumed, chain 1 of 3): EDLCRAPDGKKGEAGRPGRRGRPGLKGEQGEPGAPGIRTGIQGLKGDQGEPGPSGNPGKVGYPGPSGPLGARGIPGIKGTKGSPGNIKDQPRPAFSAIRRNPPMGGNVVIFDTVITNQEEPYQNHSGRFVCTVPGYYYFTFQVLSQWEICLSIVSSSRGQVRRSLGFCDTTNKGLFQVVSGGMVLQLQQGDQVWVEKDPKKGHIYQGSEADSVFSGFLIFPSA
C1q (Calbiochem), sequence (P02746 28-253 limits assumed, chain 2 of 3, further chain): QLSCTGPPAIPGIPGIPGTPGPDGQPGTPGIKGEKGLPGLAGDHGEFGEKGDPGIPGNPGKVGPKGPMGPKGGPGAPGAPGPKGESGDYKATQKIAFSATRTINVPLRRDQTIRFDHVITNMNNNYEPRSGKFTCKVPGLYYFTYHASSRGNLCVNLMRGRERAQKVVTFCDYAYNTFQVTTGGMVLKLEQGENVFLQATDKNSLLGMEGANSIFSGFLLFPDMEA
C1q (Calbiochem), sequence (P02747 29-245 limits assumed, chain 3 of 3, further chain): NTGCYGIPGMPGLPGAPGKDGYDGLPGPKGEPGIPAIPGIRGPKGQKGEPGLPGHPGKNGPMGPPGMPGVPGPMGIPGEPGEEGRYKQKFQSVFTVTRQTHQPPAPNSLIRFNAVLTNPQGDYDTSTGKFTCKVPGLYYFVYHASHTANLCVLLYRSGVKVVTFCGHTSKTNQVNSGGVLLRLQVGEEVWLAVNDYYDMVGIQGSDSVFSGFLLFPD
soluble hFcγRIIA^131R (human), sequence (P12318 34-217 H167R): as the sequence (P12318 34-217) above, with H134R counted along it
soluble hFcγRIIB (human), sequence (P31994 43-217 limits assumed): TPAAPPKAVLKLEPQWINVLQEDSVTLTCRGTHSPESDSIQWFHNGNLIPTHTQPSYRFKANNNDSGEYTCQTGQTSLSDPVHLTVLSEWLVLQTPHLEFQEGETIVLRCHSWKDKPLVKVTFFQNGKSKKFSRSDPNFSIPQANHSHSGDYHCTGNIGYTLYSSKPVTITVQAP
soluble hFcγ-receptor RIa (human), sequence (P12314 16-288 limits assumed): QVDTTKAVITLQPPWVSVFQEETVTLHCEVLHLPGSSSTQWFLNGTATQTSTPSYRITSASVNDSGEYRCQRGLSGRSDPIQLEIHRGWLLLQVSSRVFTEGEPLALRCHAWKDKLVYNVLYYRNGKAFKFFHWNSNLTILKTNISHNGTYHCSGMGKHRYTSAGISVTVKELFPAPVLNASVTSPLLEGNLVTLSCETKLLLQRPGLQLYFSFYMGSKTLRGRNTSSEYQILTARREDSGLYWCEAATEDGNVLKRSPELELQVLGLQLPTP

Fold change in affinity [1] [fold]	Fold change in affinity [2] [fold]	Fold change in affinity [3] [fold]	Fold change in affinity (soluble hFcγRIIB (human) [4]) [fold]	Fold change in affinity [5] [fold]	Kd [6] [µM]	Kd [7] [µM]	Kd [8] [µM]	Kd (soluble hFcγRIIB (human) [9]) [µM]	Kd [10] [µM]	Kd (C1q (Calbiochem) [11]) [µM]	Fold change in affinity [12] [fold]	Fold change in affinity (C1q (Calbiochem) [13]) [fold]	Kd [14] [µM]	Kd (C1q (Calbiochem) [15]) [µM]	Kd [16] [µM]	Kd [17] [µM]	Kd [18] [µM]	Substance
0.4	0.9	1.4	0.9	0.6	7.05	7.72	9.93	11.8	5.6	0.0955								4-4-20 hIgG1 Fc mutant F243I (antibody)
0.5	5	1.2	1.5	8.9	7.04	0.944	11.2	16.7	0.482	0.0257	0.4	0.8	0.0423					4-4-20 hIgG1 Fc mutant G236A-F243I-I332T (antibody)
	18.5			7.4		0.312		5.34	0.463									4-4-20 hIgG1 Fc mutant G236A-F243I-S298G-T299A-I332T (antibody)
0.6	9.6	1.1	2.5	9.2	6.76	0.498	11.9	9.8	0.467	0.703	0.7	0.4	0.0361					4-4-20 hIgG1 Fc mutant G236A-K246E-F372Y-T394A-Q419L (antibody)
					2.61		10.6	8.54	0.903	0.0355								4-4-20 hIgG1 Fc mutant I332T (antibody)
0.4	5.6	1.2	1.8	0.4	8.99	0.851	11.6	13.4	10	0.292	0.4		0.0436					4-4-20 hIgG1 Fc mutant K205E-V211A-G237V-F243L-V273I-T366S-M428L (antibody)
2.9	8.7		3.5	2.5	0.567	0.838	7.25		1.34	0.0633		2.2						4-4-20 hIgG1 Fc mutant K326E (antibody)
6.7	8.7		9.3	1.4	0.528	0.548		2.63	3.18	0.129		3.8						4-4-20 hIgG1 Fc mutant K326E-A339T (antibody)
0.5	9.9	0.8	1.7	4.1	9.32	0.479	15.8	14	1.06	0.392	0.4		0.0666					4-4-20 hIgG1 Fc mutant L163P-S183G-K222E-G236A-N276D-S298G-D312G (antibody)
0.3	10.1	1.2		8.4	5.57	0.473	11	8.09	0.513	0.559	1.1	0.5	0.0118					4-4-20 hIgG1 Fc mutant P171S-S191C-G236A-K274M-T394P (antibody)
					3.07	0.523		0.785										4-4-20 hIgG1 Fc mutant P247L-M252L-V266L-Y278F-V302E-S354T (antibody)
	1.8			4		4.88		6.04	0.766									4-4-20 hIgG1 Fc mutant P396L (antibody)
5.3	4.9	7.4	4.3	2.3	0.307	1.48	1.69		1.46	0.248		0.6						4-4-20 hIgG1 Fc mutant S239D (antibody)
	0.6			0.3		10.6			12.9									4-4-20 hIgG1 Fc mutant S298G (antibody)
	3		1.7	0.8		1.69		5.68	7									4-4-20 hIgG1 Fc mutant S298G-T299A (antibody)
	1		1.1	0.5		8.7		10.8	5.94									4-4-20 hIgG1 Fc mutant T394P (antibody)
					5.5	0.394	14	10.5		0.405			0.0174					4-4-20 hIgG1 Fc mutant V188E-G236A-P244H-H268Y (antibody)
	6.1		4	0.6	3.43	0.778		6.12	7.16									4-4-20 hIgG1 Fc mutant V211A-F243L-K326E-D399V (antibody)
7.2	12.8	2.2	7.6	0.9	0.489	0.372	6.9	3.21	4.79	0.137		2.1						4-4-20 hIgG1 Fc mutant V215I-K326E-T359A-P396L (antibody)
														0.29	3.5	4.8	4.3	4-4-20 hIgG1 with unmodified human IgG1 Fc (antibody)
